Experimental data from the DeepSol protein solubility set.

Assay: soluble on expression in E. coli; label from the status in PepcDB or PDB records

Sequence | soluble on expression in E. coli
MAGDPMQKVKSDILTHRGSHFDLGVQTAQWMQHTPLLKNREQEWKKRMPRFDIHIKETYDIFQTYAPQIWEEIRGMQEVLNLPTRQMILNFAHYRFTPLKNSGCTVYLGNDYMVRNYDYHPATYDGRYLLFQPNDGGLAQIGPTSRVTGRMDGMNEAGLAMGYNFMHRKHPGDGFVCYMIGRLVLQYCKDVPEAIKLLKEIPHRSSFSYIVMDKYLNHAIIEVTPRSIDVRYDHTCTNHFKLLTHENRNYTKESTERLDRLIKQTPAQLGKMDAFKLFNNPEFEIYSKLFKSWSGTIHTSMYEPQSLTAHITLGENKAPVEIDFQQWLNGESLNINELTGQIDTELTFATYLEHHHHHH | not soluble
MAGFVPLRWPISRMSSAVPRYIVGIDLGTTHTVVSYADGGDPSRIEPLFLEQLVAPGQVAGRPLLPSVRYHPATGELAEADTALPWPVEETAPGCRPVIGEFARQLGSRSRGRLVASAKSWLCHTGVDRTADILPWGAPDEVPKVSPVEASASFLRHVRCAWNHRFPAHPLETQDVIVTIPASFDDAARALTVEAARRAGLANVRLLEEPQAACYDFLWTYRGRLAETLEGVNLLLVCDVGGGTTDFTLIRVDAGGSEPELERIAVGNHLMLGGDNIDLTLAHRLEPRLTGAERSLSATDLILLAEQCRRAKETLLAEQGPESVTVTLLGKGGGLIGGARSVELSRHEVLEVVLDGFFPRVGADAVPERRSGVVEFGLPYAADPAITRHAAAFLIRHRNDAGGAAPDALLLNGGVFHSPVIAGRMAEVVGSWCGRTPVMLRNPRPDQAVAFGAVAFGLSRRGLAVRRIGGGSARAYYLLVGDANERSRRGVCILPRGAAEGQEWTVERRNFLLSVGRPVRFHVFSSTVDSGHAPGDLAVLDEAGFGELPPLAVALQAQEQGDVEVRLAARLTAIGTLQLQCVAVGDPEQRWDLELQLRGGGPRPTASASLHPRAAEAQEHIGLIFGKKTRQFGPKAVKTLRNDLEKILGKREDWDTALCRELYAALLEGAPHRRRSADHERLWLSLAGYCLRPGFGAPLDDWRVGQVWNLYSQGLQFVNEAQNWSEWWIVWRRIAGGLRAEAQQRLFADVAGFIDPVRARRGNAEALAKKRAFEDMVRLAASLERLSAGDKTMLGGWLVQRLDKAPDSAELWWALGRVGARAPFHGSAHNLVAREVVEDWVELALQRDWKRQGFVAFAATLLARLTGDRERDLDATLRNRVAEKLVASSAPEIWLELVTEVRGLDASDEKRIFGEGLPPGLRLVDSAWGALEHHHHHH | not soluble
MAGGPPKALPSTGPQSLRDMPHPLAGSSSEEAVGGDSTPSPDLLMARSFGDKDLILPNGGTPAGTASPASSSSLLNRLQLDDDIDGEARDLFVTVDDPKKHVCTMETYITYRITTKSTRVEFDLPEYSVRRRYQDFDWLRNKLEESQPTHLIPPLPEKFVVKGVVDRFSEEFVETRRKALDKFLKRITDHPVLSFNEHFNVFLTAKDLNAYKKQGIALLSRVGESVKHVTGGYKLRSRPLEFAAISDYLDTFALKLGTIDRIAQRIIKEEIEYLVELREYGPVYSTWSALEGELAEPLEGVSACIGNCSTALEELTDDITEEFLPVLREYVLYSDSMKGVLKKRDQVQAEYEAKLEAVALRKEERPKVPADVEKCQDRMECFNADLKADMERWQSNKRHDFRQLLVGLADKNIQYYEKCLMAWESIIPLLQEKQETK | soluble
MAGQTLKGPWNNLERLAENTGEFQEVVRAFYDTLDAARSSIRVVRVERVSHPLLQQQYELYRERLLQRCERRPVEQVLYHGTTAPAVPDICAHGFNRSFCGRNATVYGKGVYFAKRASLSVQDRYSPPNADGHKAVFVARVLTGDYGQGRRGLRAPPLRGPGHVLLRYDSAMDCICQPSIFVIFHDTQALPTHLITCEHVPRASPDDPSGAHHHHHH | soluble
MAGSNSRKPVVGMKIRVALVSALLAVSGCTTLSGKAPTLAPTPASTPPTSGKVTKSIISAMDGGLIGGSIGNGLSDEEKRSALEAEYKALEYTTSGQKVAWKGDQASHYGEVVPAQPYRVGSQDCRQYTQTVFTGGAGVTARGTACRNADGSWTPLTLEHHHHHH | soluble
MAGSPTCLTLIYILWQLTGSAASGPVKELVGSVGGAVTFPLKSKVKQVDSIVWTFNTTPLVTIQPEGGTIIVTQNRNRERVDFPDGGYSLKLSKLKKNDSGIYYVGIYSSSLQQPSTQEYVLHVYEHLSKPKVTMGLQSNKNGTCVTNLTCCMEHGEEDVIYTWKALGQAANESHNGSILPISWRWGESDMTFICVARNPVSRNFSSPILARKLCEGAADDPDGSGLNDIFEAQKIEWHHHHHHHH | soluble
MAGWETHKKAQWLCQLRKGMSMLPDTLSEQFVLYLDVLDGGSFSAAARKHPLTPSAVARRMDALERAVGSTLLVRTTHAVRATPAGLAFADRARRIVTELRLARAEAVSLSTAPQGLIRIDAPVPFGRRHLAPAVADFLKANPGLDVQLRLIGSFIDLQGEHLGEVDLVLRAGPLPDSRLVATSLAPMVRVVCASPEYLREHGVPASPGELPEHAGIDWDNLSPPYAWRFQHDGKLQHLRPKRARLATNNAEAMVDAALAGLGIAHLPTWLCSEYLLRGELQALFCDDGLPAAEPTCIYALRLEREASSRTRLLLAFLRERFGFPPPWDQALQQRLGER | not soluble
MAHHHHHHAYLPPNMAERLQMSSSSTEPTTTSSMLPAPHSSANMRHIEGLVVVPGVVKVSRSDVASQYTMPHTNNAPLLFSEPEHRAVDNSSGSNDAQLEPKDPHLGLMPHCLSCTLLTSAGAQEPDDVYGRSMPSSSAVGAVTTELECAVVPTLHASFTPGVSTSIMPAPTEAHSACGSRPLQQPRWGGNYDSGSQCVSFRGADRSNNVSGCGLRLVGDDVEWLQGSFEDSASSPREEVQLSWGHLQRQPCAGKSSAARAVPPALHDVREGTGGEKVLAAHHRFERAVQPQTQRQGVFPSADQENCQAAAMLWAAQQMAVFD | soluble
MAHHHHHHMAATKSAVSAAKRKAAKKVSRKSPEYTTLRKSCAPGAIAIILAGRFRGRRAVILKQLPHNGPLVVSGPMKYNGVPIRRIDSRYVIATSTTVDISSVDTAPITAEVFQRPKAEKPTKSEGDFMGDKQKAKAEKAAKKTSKAGKKTLVSDARAQLQKKIDAALIAAIKKDAQGKEKAGYLRSVFTVKPGDAPHRWNW | not soluble
MAHHHHHHMAAVDMQVRAGELPEEPKKDLKKEPSGASKSEEEMQSGIKTYYEMKIEEYESIINKKLQNKKRLEAQRNELNTRVRELCDEIQYLLEAASYVGEIVKPMGKNKVLVKINPEGKYVVDISHSVNIAQCTPNTRVALYNDSYKLHKILPSKVDPLVSLMKVEKVPDSTYEMVGGLDQQVKEVKEVIELPVKHPEIFESLGISQPKGVLLYGPPGTGKTLLARAVAHHTDCTFIRVSGSELVQKYIGEGSRMVRELFVMAREHAPSIIFMDEIDSIGSQRIEGEHGDSEVQRTMMELLNQLDGFESTQNIKVIMCTNRIDILDEALLRPGRIDRKIEFPNPNVEARMEILKIHSRKMNLMRGIDMMKIATDMNNCSGAEVKAVCTEAGMFALRERRVHVTQEDFEMAVAKVMKQDAEKNFTLRKLWK | soluble
MAHHHHHHMAAYVGSVPPATLTTLAQREVELSLLQFLRQYHPKVDELWRTHPDAEPMETAEEMCMDASDDCKSDHLPRLHRELHDSYVQGRFLFLGESTQGLYSSQPWLAFWALQAADMLDITEKLYEHVSPDALGNFILGCLQEVKKSGTSNDDDMRNNPMDMDEQQESVLLRNPVSIFDDDNDDGKRLVGFAGGQLAQIPHLAASYAALCSLCILPRTTYLRALPRAAIKRWLLSLRCKDGSFCMHTGGEADIRASYCVAVMTVLLQLNDVPAYTDGRDDTVLTEQTAAFVASCQTHEGGFACGLNASEAHGAYTQCGLAALILMRYPHLCKYAALRRWLSARQLKFEGGFNGRTNKLVDSCYSYWVGASHMLLRVGESYMRLLGQTETPRCLTAREALLLDHAQLIDTTSMCPMDDDAWRHAEEIHRQRTAHVEAYLHAPSHSTWKQQTATQSFLDEDVGDFYFNQRRLLLYVLSCCQDKEMGGLMDKPGCLNDAYHTCYSLSGMSTAQNLQYLPRSCTNETLMYATALRRGYIPNERDDYEIVLAVHNSNRGVGCGCYRSQERLSPLNPIFNICQSRVLAALRTWGVKSFIC | soluble
MAHHHHHHMADSSCTSAAASVATAAPAFDFKPLQKSNVDLFATAPQVKKLTRREKDKMLRELEVKRAKPRAVDDSSGAAGKGRKGQPRQSDRSAAVAEVVRSATISSSSDDASGIGNKGEKKKSLFETVFDTKEVEKELAAQEDRRSRKRSKKQVLRHALHSNEEEDARTVFVGNLPNTIHKRDVEKIFKSCGSITAVRIRCQALEELDEQHQNMGRAVRVLRGEIKKDAKYSATAYVLFDSAKSIASALEKNGLIFHNRHIVVTTMDVESRAYPPETSIFLGNVAYNTTEEDVWSFFQEHGIADVKRVRLVRDRETGDCKGFGYVEFMHASSVQPAIETRGDKLNGRELRIVHVNKSKEVKVATKSRREKRRSEHAGGRGGAEACKRSRSGGDGDGGSRGSAGYSNFKKPRTDSDLPSWAGLTTNPRRKMPKDLRPLVEGKVEFKPRGPRAPVKRKTRNPEK | soluble
MAHHHHHHMADYEPEDNLEQNSTLSSESIQEDISSLLRTKLAGEQWNPAKVDGWVEDIVNSILTELAELKKPYKYIVTCVFMQRTGAALSVGFISLWDNTKDGMVHVPFENDSFHCLVTVYFLKND | not soluble
MAHHHHHHMAIPPHGFIEAIHASPLRCVLYVMGAGSSAIAQLTSVAGCSRTLLDARVPYAMAAALQMLDDQPPKMVSATVARQMAQHAHHRAVEYSNGDDDGTLVGIGSTSAVQTNRIRHGKDSAFVAAWSQRQVVEFAMELPGHLARAEQEEQVTLLLFKALAECAKVPFEISFVVEPKRISYIVPDSPLRRLLQGEMKFLVFNTYGELRANFVPYVAETSFAVKPENSWKALLFPGSFRPLHWGHTELARAAVRAMATMKGTLNSTSTDTSSPSWNVPDASNVQVTYEIAVDNADKGIIDSDVELKKRVQQFLQRGARVAVTRARLFTEKALLFPGHGFIVGIDTMKRILDPKYYDNSREAMLRAMEFIREQGGYFVVAGRASGGKDAVWEDLTSIEVPAEVESMLISIRKEDFCVDVSSTMLRERNKSTC | not soluble
MAHHHHHHMASAVVAPPRGIKADPRASPNQGRRNGDGGRVLHAVPEEANKRRREREEAQHGAARYRGRNGQAVAELHGTARVKVNLVRRGTSKRRKGGRVGHLHHKPRRAPRPLAKHICPRALGETRISDGRPRPPQPRSDERHGSEGVVAVGAHVPYGSAPLRRRKHRNEAGRQQVRRVRHVRRLVPRVEGEVKPHVQLQRLTRRNHAHVPTQRGEADELGTLLHSNHVKVTAHRRGRRCRPKASARAAAGRERRRHARSRRSAPPAQVRRIDARRVAQKRSTHVHNRVIPDRSNAVRTRRGGRNDTLALRQHETHRRAAARGDLSVPHHNGAVGPHLHLRRQRVPRRHARRQRHIAVLNSHTLVPRAAVGARHAVHPDTRRQPCSRGV | not soluble
MAHHHHHHMASSEEEKRVAYCKQHNVHHLFELLATKLLLDRPENPFEYLREMLSKVEESEKSKQSYDPTVLSPPVNGAVEPLKKITLGTFGLDNAGKTTLISALGGQIEVNTTPTVGFTPTKFQTEKYDICIFDLGGAANFRGIWVHYFHDCHGLMFVIDSAADDAVVRESLNVLRDLSQHRYIKGKPILVLANKKDLENARGTKVIPNGFLDKLFGRNTAYRVVASCGIEEDPALEEGVEWLLSVVDKLHDTLEARVNCDTEEVKMEAKRKAAERLAALKTAS | not soluble
MAHHHHHHMAWTCSALSNASMIQNLERAALLSTPAIIASLQRVDRGWFVPDGMRSSAYRDEPLSLGHGATISAPHMHAIMLELLSPFLLSTPGSLPKAVLDIGSGSGYLTAILADICGDGSRVVGVEHVVELQERSLKVVLQHFPSWVNEGRITFINGDGRDISKLFHPHTAMFDVIHVGAAAASVPKDYLEAIKPGGCLVIPVGKENEVQHLHLYTKDEKGTITKKTHGGVSFVPLTSLRHQKNRS | soluble
